1 molecule from publication PMC12814185, “Receptor-Mediated Shuttling of a D‑Amino Acid Peptide Achieves High Nanomolar Cytosolic Concentrations” (Journal of the American Chemical Society, 2025) can be followed below.

Assay [1] addresses T1, chemokine-like receptor 1 (CMKLR1), Q99788.
T1 chain: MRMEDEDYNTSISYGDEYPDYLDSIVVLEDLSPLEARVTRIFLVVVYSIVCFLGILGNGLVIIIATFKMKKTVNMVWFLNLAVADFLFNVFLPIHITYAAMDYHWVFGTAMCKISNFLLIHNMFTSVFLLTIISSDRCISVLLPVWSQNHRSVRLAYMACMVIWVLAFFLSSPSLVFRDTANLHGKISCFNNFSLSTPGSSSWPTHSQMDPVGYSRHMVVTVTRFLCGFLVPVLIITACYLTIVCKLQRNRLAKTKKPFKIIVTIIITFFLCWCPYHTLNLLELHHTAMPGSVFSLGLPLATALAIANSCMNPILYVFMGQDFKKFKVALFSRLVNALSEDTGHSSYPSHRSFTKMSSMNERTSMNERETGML

The target in assay [2] is recombinant human GST-MDM2 (human), Q00987. The assay is described as follows: fluorescence polarisation.
recombinant human GST-MDM2 (human), Q00987, sequence (Q00987 whole entry): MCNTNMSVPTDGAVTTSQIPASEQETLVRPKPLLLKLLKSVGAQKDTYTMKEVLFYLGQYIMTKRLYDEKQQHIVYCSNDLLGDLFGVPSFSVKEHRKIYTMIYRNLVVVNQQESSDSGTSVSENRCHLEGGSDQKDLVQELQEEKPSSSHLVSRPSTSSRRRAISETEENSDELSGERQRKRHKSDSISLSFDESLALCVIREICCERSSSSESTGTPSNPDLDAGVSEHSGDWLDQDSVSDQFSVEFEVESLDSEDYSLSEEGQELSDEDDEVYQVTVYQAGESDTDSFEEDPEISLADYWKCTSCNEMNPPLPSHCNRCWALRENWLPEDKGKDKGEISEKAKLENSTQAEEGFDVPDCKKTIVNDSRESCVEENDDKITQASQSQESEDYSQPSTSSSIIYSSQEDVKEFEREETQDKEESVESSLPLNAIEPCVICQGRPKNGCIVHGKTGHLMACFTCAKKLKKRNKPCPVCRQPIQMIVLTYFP

B1: Cy5-hsLMWP-PMIγ-cC9 (peptide)
chain: GSVSHHHHHHGGHHHHKDWWPLAFEALLRGEV
modifications: (EG)3 spacer between hsLMWP and D-lysine; D-lysine at 17 carrying Cy5-(EG)3 on its side chain; dwwplafeallr (residues 18-29) are D-amino acids; citrulline at 33; (EG)3 spacer between Cit and Pra; propargylglycine (Pra) at 34, joined to the azidolysine of cC9 by CuAAC; C-terminal amide | N-terminal acetyl; azidolysine at 1 (joined to Pra of the other chain by CuAAC); D-homocysteine at 5 in a …
In the case of B1, the Ca2+ flux assay, EC50 in assay [1] amounted to 220 nM. For the same molecule, the Kd in assay [2] is 90 nM.
